The record followed here is paper PMC12102336.

For one series, the target named is ALX4 K211E (Mus musculus (region identical to human), UniProt Q9H161 209-274, K211E). The series is described as follows: EMSA. For orientation: In EMSA bound probe runs differently from free probe, usually more slowly.
A further series addresses ALX4 R272P (Mus musculus (region identical to human), UniProt Q9H161 209-274, R272P). The series is described as follows: EMSA.
Another series has as its target ALX4 R216G (Mus musculus (region identical to human), UniProt Q9H161 209-274, R216G). Briefly: EMSA.
The target in a further series is ALX4 Q225E (Mus musculus (region identical to human), UniProt Q9H161 209-274, Q225E). The series is described as follows: EMSA.
The next series addresses ALX4 169-303;ALX4 R272P (Mus musculus (region identical to …, UniProt Q9H161;Q9H161 169-303;209-274, |R272P)). Briefly: EMSA.
The target of another series is ALX4 169-303;ALX4 K211E (Mus musculus (region identical to …, UniProt Q9H161;Q9H161 169-303;209-274, |K211E)). The series is described as follows: EMSA.
Series [1] has as its target T1, ALX4 R218Q (Mus musculus (region identical to human), UniProt Q9H161 209-274, R218Q). Briefly: EMSA.
The target in series [2] is ALX4 169-303;ALX4 HD (209-274) (Mus musculus (region identical to …, UniProt Q9H161;Q9H161 169-303;209-274, |)). Briefly: EMSA.
In another series the target is ALX4 R215A (Mus musculus (region identical to human), UniProt Q9H161 209-274, R215A). The series is described as follows: EMSA.
The next series concerns the target ALX4 R215A;R216A (Mus musculus (region identical to human), UniProt Q9H161 209-274, R215A;R216A). Briefly: EMSA.
The next series deals with ALX4 R216A (Mus musculus (region identical to human), UniProt Q9H161 209-274, R216A). Briefly: EMSA.
Series [3] concerns the target T1, ALX4 R218Q. Briefly: ITC. A general note: ITC needs no label: the signal is the heat of the interaction.

T1 sequence (Q9H161 209-274 R218Q): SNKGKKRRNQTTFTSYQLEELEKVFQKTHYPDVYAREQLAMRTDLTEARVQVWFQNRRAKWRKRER
Chain of ALX4 Q225E (Q9H161 209-274 Q225E): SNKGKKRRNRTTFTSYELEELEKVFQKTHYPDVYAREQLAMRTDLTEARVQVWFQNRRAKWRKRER
Chain of ALX4 R216A (Q9H161 209-274 R216A): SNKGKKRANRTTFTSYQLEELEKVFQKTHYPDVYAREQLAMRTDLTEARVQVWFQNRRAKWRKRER
Chain of ALX4 169-303;ALX4 HD (209-274) (Mus musculus (Q9H161 169-303, chain 1 of 2): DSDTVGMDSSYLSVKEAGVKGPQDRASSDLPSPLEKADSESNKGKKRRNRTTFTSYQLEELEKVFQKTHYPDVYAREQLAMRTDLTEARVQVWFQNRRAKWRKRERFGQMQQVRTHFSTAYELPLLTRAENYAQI
Chain of ALX4 169-303;ALX4 HD (209-274) (Mus musculus (Q9H161 209-274, chain 2 of 2): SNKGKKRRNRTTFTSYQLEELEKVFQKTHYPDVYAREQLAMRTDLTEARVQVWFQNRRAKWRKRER
Chain of ALX4 169-303;ALX4 K211E (Mus musculus (Q9H161 169-303, stated change not applied, chain 1 of 2): as the sequence (Q9H161 169-303, chain 1 of 2) above
Chain of ALX4 169-303;ALX4 K211E (Mus musculus (Q9H161 209-274 K211E, chain 2 of 2): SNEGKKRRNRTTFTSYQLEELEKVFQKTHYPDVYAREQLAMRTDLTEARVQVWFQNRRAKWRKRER
Chain of ALX4 169-303;ALX4 R272P (Mus musculus (Q9H161 169-303, stated change not applied, chain 1 of 2): as the sequence (Q9H161 169-303, chain 1 of 2) above
Chain of ALX4 169-303;ALX4 R272P (Mus musculus (Q9H161 209-274 R272P, chain 2 of 2): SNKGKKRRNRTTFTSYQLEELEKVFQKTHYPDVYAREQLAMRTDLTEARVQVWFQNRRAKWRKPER
Chain of ALX4 K211E (Q9H161 209-274 K211E): as the sequence (Q9H161 209-274 K211E, chain 2 of 2) above
Chain of ALX4 R215A (Q9H161 209-274 R215A): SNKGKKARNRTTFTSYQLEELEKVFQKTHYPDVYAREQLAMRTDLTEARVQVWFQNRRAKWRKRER
Chain of ALX4 R215A;R216A (Q9H161 209-274 R215A/R216A): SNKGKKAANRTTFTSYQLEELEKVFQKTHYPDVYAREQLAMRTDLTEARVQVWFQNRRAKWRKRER
Chain of ALX4 R216G (Q9H161 209-274 R216G): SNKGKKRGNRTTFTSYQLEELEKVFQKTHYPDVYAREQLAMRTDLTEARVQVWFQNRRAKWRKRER
Chain of ALX4 R272P (Q9H161 209-274 R272P): as the sequence (Q9H161 209-274 R272P, chain 2 of 2) above

B1: P3 EMSA probe (dsDNA)
DNA 1: TGTGTCTTAATTAGATTAACGCACTTGATAGTGCGGGCGTGGCT
DNA 2: AGCCACGCCCGCACTATCAAGTGCGTTAATCTAATTAAGACACA
In the case of B1, the binding result with ALX4 K211E is listed as “binds”; with ALX4 R272P, “binds”; with ALX4 169-303;ALX4 R272P, “binds”; with ALX4 169-303;ALX4 K211E, “binds”; with ALX4 R218Q [1] it was “no binding”; in series [2] it was “binds”. The binding signal was ~10 fold reduction of Tau vs WT with ALX4 R216G; ~2 fold reduction of Tau vs WT with ALX4 Q225E; ~5 fold reduction of Tau vs WT with ALX4 R215A; ~20 fold reduction of Tau vs WT with ALX4 R215A;R216A; ~10 fold reduction of Tau vs WT with ALX4 R216A.

B2: 14mer ITC duplex (dsDNA)
DNA 1: CGCTAATTAGCTCG
DNA 2: CGAGCTAATTAGCG
As for B2, the binding result with ALX4 R218Q [3] was “no binding”.
